pKd: −log10 of the molar value.
Tests used:
Assay in all cases: ITC
[1] = target: B-Myb negative regulatory domain, C-terminal half, amino acids 510-600 (NRD^510-600) (human) (UniProt P10244)
[2] = target: NRD^510-600 S577A, not phosphorylated (NRD^S577A) (human) (UniProt P10244)
[3] = target: NRD^510-600 T538A, not phosphorylated (NRD^T538A) (human) (UniProt P10244)
Chain of NRD^510-600 T538A, not phosphorylated (NRD^T538A) (human) (P10244 510-600 T538A): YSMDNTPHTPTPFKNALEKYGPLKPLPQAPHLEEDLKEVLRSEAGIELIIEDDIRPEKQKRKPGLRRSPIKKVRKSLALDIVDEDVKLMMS

Chain of B-Myb negative regulatory domain, C-terminal half, amino acids 510-600 (NRD^510-600) (human) (P10244 510-600): as the sequence (P10244 510-600 T538A) above, with A29T counted along it
Chain of NRD^510-600 S577A, not phosphorylated (NRD^S577A) (human) (P10244 510-600 S577A): as the sequence (P10244 510-600 T538A) above, with A29T, S68A counted along it

pKd [1]: 5.31
pKd [2]: 5.49
pKd [3]: 5.19
Substance: B-Myb DNA binding domain (B-Myb^34-183) (from UniProt P10244-1 34-183) (domain or fragment)

Reference: article doi:10.1101/2022.06.13.495963
